B3: NCOA4 383-522-GST (domain or fragment, human, UniProt Q13772-1 383-522, looked up)
chain: SMVTEDWLVQNHQDPCKVEEVCRANEPCTSFAECVCDENCEKEALYKWLLKKEGKDKNGMPVEPKPEPEKHKDSLNMWLCPRKEVIEQTKAPKAMTPSRIADSFQVIKNSPLSEWLIRPPYKEGSPKEVPGTEDRAGKQK
notes: also called NCOA4-GST; source: E. coli BL21 (DE3) Rosetta, purified (Ni-IMAC, glutathione Sepharose, Senp1 cleavage); not shown: His6-Sumo, N-terminal, cleaved; GST, C-terminal, kept

Tests used:
Details in all cases: both partners purified
[1] = target: T1, apoferritin purified from horse spleen (containing both FTH1 and FTL) (horse, UniProt Q8MIP0 1-182; P02791 1-175); assay: pull-down; NCOA4-GST fragments on glutathione Sepharose 4B, mixed with 50 μg apoferritin from equine spleen; 30 min at 4°C; 150 mM NaCl, 20 mM Tris pH 7.4, 2 mM DTT, 0.5% Nonidet P-40; SDS-PAGE and Coomassie stain
T1 construct: ferritin heavy chain (FTH1), horse, from spleen apoferritin; ferritin light chain (FTL), horse, from spleen apoferritin; Ferritin is a complex of 24 subunits, a mixture of heavy and light chains; also called horse spleen apoferritin; apoferritin purified from equine spleen; source: bought: Sigma A3641, apoferritin purified from equine spleen
T1 sequence (Q8MIP0 whole entry, chain 1 of 2, the tested form may be a part): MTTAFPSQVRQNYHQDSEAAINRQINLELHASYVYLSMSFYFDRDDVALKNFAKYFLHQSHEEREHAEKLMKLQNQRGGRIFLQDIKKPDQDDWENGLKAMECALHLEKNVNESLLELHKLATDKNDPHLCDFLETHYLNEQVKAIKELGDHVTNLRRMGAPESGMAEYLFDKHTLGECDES
T1 sequence (P02791 whole entry, chain 2 of 2, the tested form may be a part): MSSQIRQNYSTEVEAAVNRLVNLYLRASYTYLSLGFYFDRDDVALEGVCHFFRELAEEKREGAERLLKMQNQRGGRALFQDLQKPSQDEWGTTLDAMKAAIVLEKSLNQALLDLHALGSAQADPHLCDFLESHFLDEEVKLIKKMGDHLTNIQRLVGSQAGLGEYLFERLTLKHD

NCOA4 383-522-GST = target: B3; assay: pull-down; NCOA4-GST fragments on glutathione Sepharose 4B (in one panel pre-treated with DFO), mixed with 50 μg recombinant HERC2 fragments; 30 min at 4°C; 150 mM NaCl, 20 mM Tris pH 7.4, 2 mM DTT, 0.5% Nonidet P-40; Coomassie stain
[2] = target: T2, recombinant FTH1-only ferritin complex, wild type (human, UniProt P02794 2-183); assay: pull-down; NCOA4 383-522-GST on glutathione Sepharose 4B, mixed with 50 μg recombinant FTH1-only or FTL-only complexes; 30 min at 4°C; 150 mM NaCl, 20 mM Tris pH 7.4, 2 mM DTT, 0.5% Nonidet P-40; Coomassie stain
T2 construct: Purified as 450 kDa complexes; also called FTH1^WT; FTH1-only complexes; source: E. coli, purified (Ni-IMAC, Senp1 cleavage, Q-sepharose, Superose 6 gel filtration); not shown: His6-Sumo, N-terminal, cleaved; copies: 24
T2 sequence (P02794 2-183, one chain of several): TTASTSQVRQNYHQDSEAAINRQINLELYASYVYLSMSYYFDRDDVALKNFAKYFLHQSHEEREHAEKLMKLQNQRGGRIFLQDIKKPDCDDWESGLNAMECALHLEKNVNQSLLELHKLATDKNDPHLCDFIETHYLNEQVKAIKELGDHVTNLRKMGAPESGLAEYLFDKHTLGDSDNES

[3] = target: T3, recombinant HERC2 2540-2700 (human, UniProt O95714 2540-2700); assay: pull-down; NCOA4-GST fragments on glutathione Sepharose 4B (in one panel pre-treated with DFO), mixed with 50 μg recombinant HERC2 fragments; 30 min at 4°C; 150 mM NaCl, 20 mM Tris pH 7.4, 2 mM DTT, 0.5% Nonidet P-40; Coomassie stain
T3 construct: HERC2, residues 2540-2700; source: E. coli, purified (Ni-IMAC, Senp1 cleavage, Q-sepharose, Superdex 75); not shown: His6-Sumo, N-terminal, cleaved
T3 sequence (looked up): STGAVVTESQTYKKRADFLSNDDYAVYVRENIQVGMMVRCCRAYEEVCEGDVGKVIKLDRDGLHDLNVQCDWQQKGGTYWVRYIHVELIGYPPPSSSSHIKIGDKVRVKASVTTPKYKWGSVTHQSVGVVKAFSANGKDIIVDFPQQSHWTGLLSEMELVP

B1: NCOA4 475-522-GST (domain or fragment, human, UniProt Q13772-1 475-522, looked up)
chain: KAMTPSRIADSFQVIKNSPLSEWLIRPPYKEGSPKEVPGTEDRAGKQK
notes: source: E. coli BL21 (DE3) Rosetta, purified (Ni-IMAC, glutathione Sepharose, Senp1 cleavage); not shown: His6-Sumo, N-terminal, cleaved; GST, C-terminal, kept
binding result [1]: binds

B2: recombinant HERC2 CUL7 domain (amino acids 2553-2639) (domain or fragment)
chain: not shown
notes: also called minimal CUL7 domain; source: E. coli, purified (Ni-IMAC, Senp1 cleavage, Q-sepharose, Superdex 75); not shown: His6-Sumo, N-terminal, cleaved
binding result (NCOA4 383-522-GST): binds

B3
binding result [1]: binds
binding result [2]: binds
binding result [3]: binds
